Values after ≈ are worked out from the molar mass of the structure shown. Like-named read-outs stand apart in the source and are kept apart here. Where a SMILES comes first, the peptide text is derived from it. The star is where a group is joined. NEt(2-(20S-CPT-7-yl)ethyl) = CCN(CCc1c2c(nc3ccccc13)-c1cc3c(c(=O)n1C2)COC(=O)[C@]3(O)CC)*; Belotecan = CC[C@@]1(O)C(=O)OCc2c1cc1n(c2=O)Cc2c-1nc1ccccc1c2CCN(C(C)C)*; X8 = CC[C@@]1(O)C(=O)OCc2c1cc1n(c2=O)Cc2c-1nc1ccccc1c2CCN(C1CCCC1)*; Propanoyl(3-maleimido) = O=C1C=CC(=O)N1CCC(=O)*; PEG6 = NCCOCCOCCOCCOCCOCCOCCC(=O)O
Legend:
A2780 (ovarian cancer) = experiment: cells; type: cell-based; conditions: CCK8, 48 h; Table 1
Method in brief: (§1)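 Following a 48 h drug exposure of 5,000 seeded cells per well, wells received CCK8 and, after about 2 h incubation, optical density at 450 nm was recorded. IC50 values were computed from survival rates versus solvent-only wells.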

[1] = system: A549 (non-small cell lung cancer); experiment: cells; type: cell-based; conditions: CCK8, 48 h; Table 1
Method in brief: as §1

SJSA-1 (sarcoma tissue) = experiment: cells; type: cell-based; conditions: CCK8, 48 h; Table 1
Method in brief: as §1

[2] = system: SKBR3 (breast cancer tissue); experiment: cells; type: cell-based; conditions: CCK8, 48 h; Table 1
Method in brief: as §1

[3] = system: sarcoma SJSA-1 tumor model; conditions: Table 2
Method in brief: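 Female BALB/c nude mice (6-8 weeks) bearing subcutaneous right-chest SJSA-1 xenografts from 2×10^7 cells were randomized, three per group, once tumors reached at least 100 mm^3. Treatment given once a week for three weeks starting day 1; saline controls.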

[4] = system: colo320 colorectal cancer tumor model
Method in brief: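 Dosing was once a week for four weeks, with saline as control, in randomized groups of three mice. Groups were formed after subcutaneous colo320 xenografts (7.5×10^6 cells, right chest) grew to ≥120 mm^3 in female 6–8-week-old BALB/c nude mice.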

[5] = MTD determination in mice (Examples 27, 36, 44); type: in vivo; conditions: female, mouse, in vivo; mice, monitored for 14 d; Table 4
Description: Test animals: 6-8 weeks old mice, all female; mice were grouped randomly, with six mice in each group, administered with drugs at different concentration gradients separately and monitored for 14 d. A mouse was euthanized at a loss of 20% of its initial weight and deemed to have died of poisoning.

[6] = Tumor homogenate activation efficiency, ovarian cancer tissue (Examples 28, 37); type: in vitro ADME; conditions: pH 5.0, 37° C., 2 h; Table 5
Procedure: (§2) Buffer preparation: 50 mM PH buffer (MES), 250 mM NaCl, pH adjusted to 5.0 with 0.5 M of sodium hydroxide.
(§3) The polypeptide conjugate was prepared into a 1 mg/ml solution with pH 5.0 buffer, 100 μg of tumor tissue homogenate was added, (the tumor tissue homogenate was the homogenate of tumor tissues prepared with a Jingxin F6/10 handheld homogenizer), and the solution was placed at 37° C. for 2 h. The tumor tissue homogenate could effectively activate the polypeptide conjugate and release Belotecan, and the activation efficiencies of the drugs in tumor tissues were compared by high-performance liquid chromatography (HPLC) allowing determination of a decrease in the compounds and an increase in Belotecan:
(§4) Release percentage=peak area of Belotecan/total peak area of Belotecan and all other Belotecan-containing compounds
as §3, with “HPLC” for “high-performance liquid chromatography (HPLC)”, “Belotecan: […]” for “Belotecan:”

[7] = Tumor homogenate activation efficiency, sarcoma tissue (Examples 28, 37); type: in vitro ADME; conditions: pH 5.0, 37° C., 2 h; Table 5
Procedure: as §2, §3, §4
as §3, with “HPLC” for “high-performance liquid chromatography (HPLC)”, “Belotecan: […]” for “Belotecan:”

[8] = Tumor homogenate activation efficiency, breast cancer tissue (Examples 28, 37); type: in vitro ADME; conditions: pH 5.0, 37° C., 2 h; Table 5
Procedure: as §2, §3, §4
as §3, with “HPLC” for “high-performance liquid chromatography (HPLC)”, “Belotecan: […]” for “Belotecan:”

[9] = Tumor homogenate activation efficiency, non-small cell lung cancer tissue (Examples 28, 37); type: in vitro ADME; conditions: pH 5.0, 37° C., 2 h; Table 5
Procedure: as §2, §3, §4
as §3, with “HPLC” for “high-performance liquid chromatography (HPLC)”, “Belotecan: […]” for “Belotecan:”

[10] = Tumor homogenate activation efficiency, small cell lung cancer tissue (Example 28); type: in vitro ADME; conditions: pH 5.0, 37° C., 2 h; Table 5
Procedure: as §2, §3, §4

[11] = Homogenate activation efficiency, heart tissue (Examples 28, 37); type: in vitro ADME; conditions: pH 5.0, 37° C., 2 h; Table 5
[12] = 15 mg/kg once a week for three weeks
[13] = 45 mg/kg once a week for three weeks
[14] = 15 mg/kg once a week for four weeks, Table 3
[15] = 45 mg/kg once a week for four weeks, Table 3
[16] = Table 14 (Example 43), dose 45 mg/kg, once a week for four weeks, BALB/c mice
[17] = Table 13 (Example 42), dose 45 mg/kg, once a week for four weeks, BALB/c mice

Structure (SMILES)	IC50 A2780 (ovarian cancer) (A2780 (ovarian cancer)) [µg/mL]	IC50 A549 (non-small cell lung cancer) [1] [µg/mL]	IC50 SJSA-1 (sarcoma tissue) (SJSA-1 (sarcoma tissue)) [µg/mL]	IC50 SKBR3 (breast cancer tissue) [2] [µg/mL]	Mouse weight (%) [3, 12]	SJSA-1 (sarcoma tissue) mean tumor volume (mm^3) [3, 12] [mm^3]	SJSA-1 (sarcoma) Growth rate (%) [3, 12] [%]	Mouse weight (%) [3, 13]	SJSA-1 (sarcoma tissue) mean tumor volume (mm^3) [3, 13] [mm^3]	SJSA-1 (sarcoma) Growth rate (%) [3, 13] [%]	Mouse weight (%) [4, 14]	colo320 (colorectal cancer cell) growth rate (%) [4, 14] [%]	Mouse weight (%) [4, 15]	MTD at 14 d [5] [mg/kg]	Percentage of release efficiency (%) Ovarian cancer tissue (A2780) [6] [%]	Percentage of release efficiency (%) Sarcoma tissue (SJSA1) [7] [%]	Percentage of release efficiency (%) Breast cancer tissue (SKBR3) [8] [%]	Percentage of release efficiency (%) Non-small cell lung cancer tissue (A549) [9] [%]	Percentage of release efficiency (%) Small cell lung cancer tissue (NCI-H841) [10] [%]	Percentage of release efficiency (%) Heart tissue [11] [%]	also measured
CCN(CCc1c2c(nc3ccccc13)-c1cc3c(c(=O)n1C2)COC(=O)[C@]3(O)CC)C(=O)CNC(=O)[C@H](CCCCN)NC(=O)[C@H](C)NC(=O)[C@H](C)NC(=O)CCOCCOCCOCCOCCOCCOCCNC(=O)CCN1C(=O)C=CC1=O [MI-6PEG-AAKG-D2] ({Propanoyl(3-maleimido)-PEG6}-AAKG-{NEt(2-(20S-CPT-7-yl)ethyl)})	0.80 (≈ 0.649 µM)	1.32 (≈ 1.07 µM)	0.49 (≈ 0.397 µM)	2.62 (≈ 2.12 µM)	+27%	1215.6	980.32	+31%	945.6	791.30	+27%	943.33	+24%	350	85.8	76.6	69.5	69.8	68	1.5	colo320 (colorectal cancer cell) mean tumor volume (mm^3) [4, 14]: 1044.8 mm^3; colo320 (colorectal cancer cell) growth rate (%) [4, 15]: 470.58%; colo320 (colorectal cancer cell) mean tumor volume (mm^3) [4, 15]: 521.2 mm^3; Mouse weight (%) [4, 16]: +24%; colo320 (colorectal cancer cell) growth rate (%) [4, 16]: 470.58%; colo320 (colorectal cancer cell) mean tumor volume (mm^3) [4, 16]: 521.2 mm^3
CC[C@@]1(O)C(=O)OCc2c1cc1n(c2=O)Cc2c-1nc1ccccc1c2CCN(C(=O)CNC(=O)[C@H](CC(N)=O)NC(=O)[C@H](C)NC(=O)[C@H](C)NC(=O)CCOCCOCCOCCOCCOCCOCCNC(=O)CCN1C(=O)C=CC1=O)C1CCCC1 [MI-6PEG-AANG-D8] ({Propanoyl(3-maleimido)-PEG6}-AANG-X8)	1.21 (≈ 0.961 µM)	2.51 (≈ 1.99 µM)	0.87 (≈ 0.691 µM)	2.55 (≈ 2.02 µM)	+35%								+21%	400	70.1	71.1	70.9	85.1	80.8	3	
CC[C@@]1(O)C(=O)OCc2c1cc1n(c2=O)Cc2c-1nc1ccccc1c2CCN(C(=O)CNC(=O)[C@H](Cc1ccccc1)NC(=O)CNC(=O)CNC(=O)CCOCCOCCOCCOCCOCCOCCNC(=O)CCN1C(=O)C=CC1=O)C(C)C [MI-6PEG-GGFG-Belotecan] ({Propanoyl(3-maleimido)-PEG6}-GGFG-Belotecan)	2.60 (≈ 2.1 µM)	3.61 (≈ 2.92 µM)	1.50 (≈ 1.21 µM)	6.15 (≈ 4.97 µM)	+29%	1453.1	1257.35	+31%	979.5	844.40	+27%	1057.73	+34%	180	81.5	83.4	67.7	72.7	77.3	1.9	colo320 (colorectal cancer cell) mean tumor volume (mm^3) [4, 14]: 1171.5 mm^3; colo320 (colorectal cancer cell) growth rate (%) [4, 15]: 525.03%; colo320 (colorectal cancer cell) mean tumor volume (mm^3) [4, 15]: 581.5 mm^3; Mouse weight (%) [4, 17]: +34%; colo320 (colorectal cancer cell) growth rate (%) [4, 17]: 525.03%; colo320 (colorectal cancer cell) mean tumor volume (mm^3) [4, 17]: 581.5 mm^3; Mouse weight (%) [4, 16]: +34%; colo320 (colorectal cancer cell) growth rate (%) [4, 16]: 525.03%; colo320 (colorectal cancer cell) mean tumor volume (mm^3) [4, 16]: 581.5 mm^3
CC[C@@]1(O)C(=O)OCc2c1cc1n(c2=O)Cc2c-1nc1ccccc1c2CCN(C(=O)CNC(=O)[C@H](Cc1ccccc1)NC(=O)CNC(=O)CNC(=O)CCOCCOCCOCCOCCOCCOCCNC(=O)CCN1C(=O)C=CC1=O)C1CCCC1 [MI-6PEG-GGFG-D8] ({Propanoyl(3-maleimido)-PEG6}-GGFG-X8)	3.77 (≈ 2.98 µM)	4.93 (≈ 3.9 µM)	2.35 (≈ 1.86 µM)	11.26 (≈ 8.91 µM)	+19%								+17%	250	76	72.7	81.2	77.5	66.7	3.1	
